Measured values as given in article PMC10397247.
Like-named read-outs stand apart in the source and are kept apart here.

Columns and labels:
Assay in all cases: two-hybrid library CCmax;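 also: natural log of median RNA to DNA barcode read ratio; higher means stronger binding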
4H3130-AA = molecular target: T1, 4H3130-AA; conditions: mean of both orientations
T1 chain: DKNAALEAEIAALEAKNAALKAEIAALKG

4H797-AA = molecular target: T2, 4H797-AA; conditions: mean of both orientations
T2 chain: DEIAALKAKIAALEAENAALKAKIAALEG

4H570-AA = molecular target: T3, 4H570-AA; conditions: mean of both orientations
T3 chain: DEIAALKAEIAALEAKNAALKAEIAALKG

4H3009-AA = molecular target: T4, 4H3009-AA; conditions: mean of both orientations
T4 chain: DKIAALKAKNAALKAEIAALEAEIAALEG

4H745-AA = molecular target: T5, 4H745-AA; conditions: mean of both orientations
T5 chain: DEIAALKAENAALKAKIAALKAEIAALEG

4H3753-AA = molecular target: T6, 4H3753-AA; conditions: mean of both orientations
T6 chain: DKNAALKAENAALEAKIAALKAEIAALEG

4H2865-AA = molecular target: T7, 4H2865-AA
T7 chain: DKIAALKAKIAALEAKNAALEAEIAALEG

4H710-AA = molecular target: T8, 4H710-AA; conditions: mean of both orientations
T8 chain: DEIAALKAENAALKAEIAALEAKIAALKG

4H909-AA = molecular target: T9, 4H909-AA; conditions: mean of both orientations
T9 chain: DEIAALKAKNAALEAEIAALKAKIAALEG

4H3165-AA = molecular target: T10, 4H3165-AA; conditions: mean of both orientations
T10 chain: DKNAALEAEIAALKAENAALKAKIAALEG

4H2725-AA = molecular target: T11, 4H2725-AA
T11 chain: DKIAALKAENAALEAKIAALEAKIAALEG

4H930-AA = molecular target: T12, 4H930-AA; conditions: mean of both orientations
T12 chain: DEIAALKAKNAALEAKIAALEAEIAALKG

4H3590-AA = molecular target: T13, 4H3590-AA; conditions: mean of both orientations
T13 chain: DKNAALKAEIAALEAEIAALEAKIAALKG

4H3381-AA = molecular target: T14, 4H3381-AA; conditions: mean of both orientations
T14 chain: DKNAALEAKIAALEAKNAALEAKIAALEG

4H629-AA = molecular target: T15, 4H629-AA; conditions: mean of both orientations
T15 chain: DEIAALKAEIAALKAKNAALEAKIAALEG

4H3395-AA = molecular target: T16, 4H3395-AA; conditions: mean of both orientations
T16 chain: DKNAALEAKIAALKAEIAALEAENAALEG

4H3410-AA = molecular target: T17, 4H3410-AA; conditions: mean of both orientations
T17 chain: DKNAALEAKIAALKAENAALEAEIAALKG

4H94-AA = molecular target: T18, 4H94-AA; conditions: mean of both orientations
T18 chain: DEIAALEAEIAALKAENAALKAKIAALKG

4H485-AA = molecular target: T19, 4H485-AA; conditions: mean of both orientations
T19 chain: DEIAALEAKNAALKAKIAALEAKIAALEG

4H3016-AA = molecular target: T20, 4H3016-AA; conditions: mean of both orientations
T20 chain: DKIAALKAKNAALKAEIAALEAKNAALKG

4H3120-AA = molecular target: T21, 4H3120-AA; conditions: mean of both orientations
T21 chain: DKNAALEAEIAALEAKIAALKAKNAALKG

4H3865-AA = molecular target: T22, 4H3865-AA; conditions: mean of both orientations
T22 chain: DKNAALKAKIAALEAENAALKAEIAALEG

4H891-AA = molecular target: T23, 4H891-AA; conditions: mean of both orientations
T23 chain: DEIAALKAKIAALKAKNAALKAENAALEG

4H310-AA = molecular target: T24, 4H310-AA; conditions: mean of both orientations
T24 chain: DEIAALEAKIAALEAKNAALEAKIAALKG

4H458-AA = molecular target: T25, 4H458-AA; conditions: mean of both orientations
T25 chain: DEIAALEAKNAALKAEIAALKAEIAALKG

4H536-AA = molecular target: T26, 4H536-AA; conditions: mean of both orientations
T26 chain: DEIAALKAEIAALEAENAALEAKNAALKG

4H850-AA = molecular target: T27, 4H850-AA; conditions: mean of both orientations
T27 chain: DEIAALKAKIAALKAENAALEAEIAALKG

4H3697-AA = molecular target: T28, 4H3697-AA
T28 chain: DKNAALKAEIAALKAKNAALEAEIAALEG

APC8516-AA = molecular target: T29, APC8516-AA; conditions: mean of both orientations
T29 chain: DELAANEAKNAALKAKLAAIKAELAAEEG

APC7524-AA = molecular target: T30, APC7524-AA
T30 chain: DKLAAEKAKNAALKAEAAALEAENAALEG

APC8401-AA = molecular target: T31, APC8401-AA; conditions: mean of both orientations
T31 chain: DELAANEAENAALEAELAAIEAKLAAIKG

APC9141-AA = molecular target: T32, APC9141-AA; conditions: mean of both orientations
T32 chain: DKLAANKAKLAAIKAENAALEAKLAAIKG

APC9291-AA = molecular target: T33, APC9291-AA; conditions: mean of both orientations
T33 chain: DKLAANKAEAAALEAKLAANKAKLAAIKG

APC9182-AA = molecular target: T34, APC9182-AA; conditions: mean of both orientations
T34 chain: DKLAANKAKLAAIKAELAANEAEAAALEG

APC9806-AA = molecular target: T35, APC9806-AA; conditions: mean of both orientations
T35 chain: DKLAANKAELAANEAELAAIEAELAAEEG

4H3915-AA = molecular target: T36, 4H3915-AA; conditions: mean of both orientations
T36 chain: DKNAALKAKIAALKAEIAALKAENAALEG

4H63-AA = molecular target: T37, 4H63-AA
T37 chain: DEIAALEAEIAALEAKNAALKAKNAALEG

4H380-AA = molecular target: T38, 4H380-AA; conditions: mean of both orientations
T38 chain: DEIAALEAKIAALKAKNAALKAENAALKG

4H3777-AA = molecular target: T39, 4H3777-AA; conditions: mean of both orientations
T39 chain: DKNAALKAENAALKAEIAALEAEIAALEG

4H446-AA = molecular target: T40, 4H446-AA; conditions: mean of both orientations
T40 chain: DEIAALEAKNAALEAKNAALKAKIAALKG

4H3619-AA = molecular target: T41, 4H3619-AA; conditions: mean of both orientations
T41 chain: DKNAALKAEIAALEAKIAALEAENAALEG

4H3974-AA = molecular target: T42, 4H3974-AA; conditions: mean of both orientations
T42 chain: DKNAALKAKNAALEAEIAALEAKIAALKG

4H3449-AA = molecular target: T43, 4H3449-AA
T43 chain: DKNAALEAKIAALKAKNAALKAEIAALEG

4H3629-AA = molecular target: T44, 4H3629-AA; conditions: mean of both orientations
T44 chain: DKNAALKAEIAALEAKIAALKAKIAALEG

4H432-AA = molecular target: T45, 4H432-AA; conditions: mean of both orientations
T45 chain: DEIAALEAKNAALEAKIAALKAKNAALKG

APC9096-AA = molecular target: T46, APC9096-AA; conditions: mean of both orientations
T46 chain: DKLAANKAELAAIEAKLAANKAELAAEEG

APC8191-AA = molecular target: T47, APC8191-AA
T47 chain: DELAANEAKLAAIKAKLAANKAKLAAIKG

APC9319-AA = molecular target: T48, APC9319-AA; conditions: mean of both orientations
T48 chain: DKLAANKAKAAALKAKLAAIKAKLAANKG

APC8910-AA = molecular target: T49, APC8910-AA
T49 chain: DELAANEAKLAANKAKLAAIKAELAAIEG

4H55-AA = molecular target: T50, 4H55-AA
T50 chain: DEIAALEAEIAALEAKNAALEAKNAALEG

4H662-AA = molecular target: T51, 4H662-AA
T51 chain: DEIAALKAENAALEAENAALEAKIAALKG

DKIAALKAENAALEAKIAALEAKIAALEG [4H2725-AA]
interaction score (4H3130-AA): -0.815
interaction score (4H797-AA): -1.21
interaction score (4H570-AA): -0.95
interaction score (4H3009-AA): 1.76
interaction score (4H745-AA): 1.36
interaction score (4H3753-AA): -1.26
interaction score (4H2865-AA; mean of both orientations): -1.08
interaction score (4H710-AA): 0.748
interaction score (4H909-AA): -0.311
interaction score (4H3165-AA): -0.466
interaction score (4H2725-AA): 1.47
interaction score (4H930-AA): 0.224
interaction score (4H3590-AA): -0.62
interaction score (4H3381-AA): -1.94
interaction score (4H629-AA): -0.516
interaction score (4H3395-AA): -1.64
interaction score (4H3410-AA): -1.72
interaction score (4H94-AA): -0.91
interaction score (4H485-AA): 1.94
interaction score (4H3016-AA): -0.188
interaction score (4H3120-AA): -1.56
interaction score (4H3865-AA): -1.16
interaction score (4H891-AA): -1.64
interaction score (4H310-AA): -1.1
interaction score (4H458-AA): 0.908
interaction score (4H536-AA): -1.71
interaction score (4H850-AA): -0.653
interaction score (4H3697-AA): 1.2

DKIAALKAKIAALEAKNAALEAEIAALEG [4H2865-AA]
interaction score (4H3130-AA): -0.487
interaction score (4H797-AA): -0.194
interaction score (4H570-AA): 1.01
interaction score (4H3009-AA): 2.01
interaction score (4H745-AA): 0.436
interaction score (4H3753-AA): -0.663
interaction score (4H2865-AA): 0.121
interaction score (4H710-AA): -0.988
interaction score (4H909-AA): -0.808
interaction score (4H3165-AA): -1.47
interaction score (4H930-AA): -1.5
interaction score (4H3590-AA): -0.177
interaction score (4H3381-AA): -0.233
interaction score (4H629-AA): -0.872
interaction score (4H3395-AA): -1.43
interaction score (4H3410-AA): -0.858
interaction score (4H94-AA): 1.39
interaction score (4H485-AA): -1.28
interaction score (4H3016-AA): -1.4
interaction score (4H3120-AA): -0.983
interaction score (4H3865-AA): -1.3
interaction score (4H891-AA): -1.8
interaction score (4H310-AA): 1.7
interaction score (4H458-AA): -0.6
interaction score (4H536-AA): 1.01
interaction score (4H850-AA): 0.586
interaction score (4H3697-AA; mean of both orientations): -1.95

DKLAAEKAKNAALKAEAAALEAENAALEG [APC7524-AA]
interaction score (APC8516-AA): -1.83
interaction score (APC7524-AA): -1.65
interaction score (APC8401-AA): -1.27
interaction score (APC9141-AA): -1.69
interaction score (APC9291-AA): -1.72
interaction score (APC9182-AA): -1.85
interaction score (APC9806-AA): -1.98

DKNAALEAKIAALKAKNAALKAEIAALEG [4H3449-AA]
interaction score (4H3915-AA): -1.74
interaction score (4H63-AA): -1.51
interaction score (4H380-AA): -1.96
interaction score (4H3777-AA): -2.46
interaction score (4H446-AA): -1.41
interaction score (4H3619-AA): -1.01
interaction score (4H3974-AA): -0.638
interaction score (4H3449-AA): -2.07
interaction score (4H3629-AA): -1.65
interaction score (4H432-AA): 0.499

DELAANEAKLAAIKAKLAANKAKLAAIKG [APC8191-AA]
interaction score (APC9096-AA): -1.76
interaction score (APC8191-AA): -1.48
interaction score (APC9319-AA): -1.88
interaction score (APC8910-AA): -1.9

DEIAALEAEIAALEAKNAALEAKNAALEG [4H55-AA]
interaction score (4H55-AA): -1.54
interaction score (4H662-AA; mean of both orientations): -1.57

DEIAALKAENAALEAENAALEAKIAALKG [4H662-AA]
interaction score (4H662-AA): 0.217
